# Measured values as given in patent US20250367269A1, “KYNURENINE AMINOTRANSFERASE AND PRODUCTS THEREOF FOR THE TREATMENT OF ARTHRITIC DISEASES” (Institut National de Recherche Pour L'Agriculture, …, priority 2022, published 2025).
# B1: AADAT: Recombinant murine alpha-aminoadipate aminotransferase (SEQ ID NO:13) produced in E. coli and purified by affinity chromatography (protein, listed as Mus musculus)
# chain: MNYSRFLTATSLARKPSPIRTTADILSKAPKTLISLAPGSPNPSMFPFKSAAFTVENGSTIRFEDDLIKRALQYSPSYGIPELLSWLKQFQVKLHNPPTVNYPPNQGQMDLCITSGCQDGLCKAFEMLINPGDTILVNEPLFPGTLYAMKPLGCNIINVPSDEHGIIPEGLKKILSQWKPEDSKDPTKKTPKFLYTVPNGNNPTGNSLTGDRKKEIYELARKYDFLIIEDDPYYFLQFSKPWEPTFLSMDVDGRVIRADTFSKTVSSGLRVGFMTGPKTLIQNIVLHTQVSSVHACTLSQLMILQLLHQWGEEGFLAHIDRTIDFYKNQRDSILAAADKWLRGLAEWHVPKAGMFLWIKVKGISDTKQLIEEKAIEREVLLVPGNGFFIDGSAPTSFFRASFSLATPAQMDTAFQRLAQLIKESL
# Tests used:
# [1] = tested on: collagen-antibody induced arthritis; assay: collagen-antibody induced arthritis model; type: in vivo, C57BL6J male mice
# Description: C57BL6J male mice were injected intraperitoneally with a cocktail of arthritogenic anti-type II collagen (2 mg/mouse) at day 0. At day 3, mice received an injection of lipopolysaccharide from bacterial cells walls of E. coli 055: B5. The severity of arthritis was evaluated every other day on each paw with a score from 0 to 4, for a maximal score of 16 by animal (0=normal joint, 1=moderate redness and slight swelling or swelling of one or two digits, 2=moderate redness and moderate paw swelling or swelling more than three digits, 3=redness and swelling from tarsal joints to metatarsal joints, 4=severe redness and severe swelling of the entire paw). Hindpaw swelling was measured at the same time by plethysmography. Paw volume determined prior to disease induction was used as the baseline. The development of arthritis was analyzed by histological assessment. Hindpaws were dissected then fixed in 4% formalin (Labonord). Hindpaws were further decalcified in 10% EDTA for 1 month and embedded in paraffin blocks. Five μm-thick tissue sections were cut and two stainings were performed, hematoxylin, eosin and toluidine blue. Histological examination was carried out blindly by three independent observers. Synovium from ankle joint was graded on a scale of 0 to 3 (with 0=normal and 3=major changes) for synovial hyperplasia (width of lining layer) and tissue cell infiltration. […]
# [2] = AADAT activity test (transformation of KYNU into KYNA and XANA); type: biochemical; conditions: 15 min in the presence of KYNU (1000 μM), FIG. 3F
# Description: The activity test is based on the disappearance of kynurenine and 3-hydroxykynurenin which are substrates of AADAT. A reaction mixture (50 μL final volume) containing 10 mM L-kynurenine or 3-hydroxykynurenin, 2 mM α-oxoglutarate, 40 μM PLP (pyridoxal 5′-phosphate) and 0 or 1 μL of the purified protein sample prepared in buffer 100 mM potassium phosphate (pH 7.4). Then, the mixture was incubated at 37° C. for 15 min, and the reaction was stopped by the addition of an equal volume of 30% acetic acid. The supernatant of the reaction mixture, obtained by centrifugation at 3000 g for 10 min at 4° C., was mixed equally with Ehrlich's solution and incubated 15 min at room temperature to have a colorimetric reaction. In parallel, a standard range of kynurenine or 3-hydroxykynurenin from 0 μM to 1000 μM was made under the same conditions. The amount of kynurenine or 3-hydroxykynurenin present in the sample was measured with a spectrophotometer at an OD of 492 nm and calculated using the standard range (FIG. 3E). A verification of the production of KYNA and XANA in vitro via the action of our enzyme during 15 min in the presence of KYNU (1000 μM) was carried out (FIG. 3F).
molecule,measurement,setting,value
B1,arthritis severity,"[1]; daily i.p. recombinant AADAT ~50 μg/d vs vehicle, confirmed by oedema swelling measure and histology (FIG. 4)",drastically reduced
same,maximal clinical score mean,"[1]; score 0 to 4 per paw, maximal 16 by animal, daily i.p. recombinant AADAT ~50 μg/d, 2 experiments, 8 mice per group, vehicle 6.9",2.6
same,transformation of KYNU into KYNA and XANA in vitro,[2],dose effect can be observed
